Data on three proteins can be found in article PMC9105384, “Ethyl Gallate Dual-Targeting PTPN6 and PPARγ Shows Anti-Diabetic and Anti-Obese Effects” (International Journal of Molecular Sciences, 2022).

The chains are these.
B1: PTPN7 (Homo sapiens) (protein)
chain: MVQAHGGRSRAQPLTLSLGAAMTQPPPEKTPAKKHVRLQERRGSNVALMLDVRSLGAVEPICSVNTPREVTLHFLRTAGHPLTRWALQRQPPSPKQLEEEFLKIPSNFVSPEDLDIPGHASKDRYKTILPNPQSRVCLGRAQSQEDGDYINANYIRGYDGKEKVYIATQGPMPNTVSDFWEMVWQEEVSLIVMLTQLREGKEKCVHYWPTEEETYGPFQIRIQDMKECPEYTVRQLTIQYQEERRSVKHILFSAWPDHQTPESAGPLLRLVAEVEESPETAAHPGPIVVHCSAGIGRTGCFIATRIGCQQLKARGEVDILGIVCQLRLDRGGMIQTAEQYQFLHHTLALYAGQLPEEPSP
B2: PTPN9 (Homo sapiens) (protein)
chain: MEPATAPRPDMAPELTPEEEQATKQFLEEINKWTVQYNVSPLSWNVAVKFLMARKFDVLRAIELFHSYRETRRKEGIVKLKPHEEPLRSEILSGKFTILNVRDPTGASIALFTARLHHPHKSVQHVVLQALFYLLDRAVDSFETQRNGLVFIYDMCGSNYANFELDLGKKVLNLLKGAFPARLKKVLIVGAPIWFRVPYSIISLLLKDKVRERIQILKTSEVTQHLPRECLPENLGGYVKIDLATWNFQFLPQVNGHPDPFDEIILFSLPPALDWDSVHVPGPHAMTIQELVDYVNARQKQGIYEEYEDIRRENPVGTFHCSMSPGNLEKNRYGDVPCLDQTRVKLTKRSGHTQTDYINASFMDGYKQKNAYIGTQGPLENTYRDFWLMVWEQKVLVIVMTTRFEEGGRRKCGQYWPLEKDSRIRFGFLTVTNLGVENMNHYKKTTLEIHNTEERQKRQVTHFQFLSWPDYGVPSSAASLIDFLRVVRNQQSLAVSNMGARSKGQCPEPPIVVHCSAGIGRTGTFCSLDICLAQLEELGTLNVFQTVSRMRTQRAFSIQTPEQYYFCYKAILEFAEKEGMVSSGQNLLAVESQ
B3: PTPN3 (Homo sapiens) (protein)
chain: MTSRLRALGGRINNIRTSELPKEKTRSEVICSIHFLDGVVQTFKVTKQDTGQVLLDMVHNHLGVTEKEYFGLQHDDDSVDSPRWLEASKAIRKQLKGGFPCTLHFRVRFFIPDPNTLQQEQTRHLYFLQLKMDICEGRLTCPLNSAVVLASYAVQSHFGDYNSSIHHPGYLSDSHFIPDQNEDFLTKVESLHEQHSGLKQSEAESCYINIARTLDFYGVELHSGRDLHNLDLMIGIASAGVAVYRKYICTSFYPWVNILKISFKRKKFFIHQRQKQAESREHIVAFNMLNYRSCKNLWKSCVEHHTFFQAKKLLPQEKNVLSQYWTMGSRNTKKSVNNQYCKKVIGGMVWNPAMRRSLSVEHLETKSLPSRSPPITPNWRSPRLRHEIRKPRHSSADNLANEMTYITETEDVFYTYKGSLAPQDSDSEVSQNRSPHQESLSENNPAQSYLTQKSSSSVSPSSNAPGSCSPDGVDQQLLDDFHRVTKGGSTEDASQYYCDKNDNGDSYLVLIRITPDEDGKFGFNLKGGVDQKMPLVVSRINPESPADTCIPKLNEGDQIVLINGRDISEHTHDQVVMFIKASRESHSRELALVIRRRAVRSFADFKSEDELNQLFPEAIFPMCPEGGDTLEGSMAQLKKGLESGTVLIQFEQLYRKKPGLAITFAKLPQNLDKNRYKDVLPYDTTRVLLQGNEDYINASYVNMEIPAANLVNKYIATQGPLPHTCAQFWQVVWDQKLSLIVMLTTLTERGRTKCHQYWPDPPDVMNHGGFHIQCQSEDCTIAYVSREMLVTNTQTGEEHTVTHLQYVAWPDHGVPDDSSDFLEFVNYVRSLRVDSEPVLVHCSAGIGRTGVLVTMETAMCLTERNLPIYPLDIVRKMRDQRAMMVQTSSQYKFVCEAILRVYEEGLVQMLDPS

Substrate in the series: Cc1cc(=O)oc2c(F)c(OP(=O)(O)O)c(F)cc12
Kind of series: purified protein, by the assay type. Further details: DiFMUP hydrolysis by purified PTPs, fluorescence Ex355/Em460, initial rates over 10 min; Michaelis-Menten and Lineweaver-Burk Km. Here is the method:
The enzymatic activity of each PTP was evaluated using 6,8-difluoro-4-methylumbelliferyl phosphate (DiFMUP) as the surrogate substrate. To reach within the range of the initial rate (v0) during the measurement for 10 min, the pH and concentration of each PTP were optimized and are listed in Table S3. To determine the Km values, each PTP with optimized concentration was added to the reaction buffer (20 mM Bis-Tris at pH 6.0 or Tris at pH 7.0 and 8.0, 150 mM NaCl, 2.5 mM dithiothreitol (DTT), 0.01% Triton X-100) containing various concentrations of DiFMUP to obtain a final volume of 100 μL in a 96-well plate. Fluorescence intensities were measured once every minute for a complete 10 min duration using a Victor™ X4 Multilabel Plate Reader (Perkin Elmer, Waltham, MA, USA) at excitation/emission = 355 nm/460 nm. The initial rates of the reaction were determined using a previously described procedure for calculating the amount of product formation. To screen a library of 1033 natural products (Chengdu Biopurify Phytochemicals Ltd., Chengdu, China) against 20 PTPs, each PTP with an optimized concentration was added to the reaction buffer with an optimized pH containing DiFMUP (2 × Km for each PTP) after adding each compound (20 μM). […] The IC50 values were estimated using a sigmoid plot in GraphPad Prism 5 software (GraphPad Software Inc., San Diego, CA, USA). The Hill coefficient (nH), the degree of cooperativity, was calculated according to a previously published method. To determine the inhibition constant (Ki) and identify the inhibition mode of EG, various concentrations of EG (2.5, 5, 10, and 20 μM) were assayed with various concentrations of DiFMUP (260, 130, 65, and 32.5 μM). Kinetic parameters were obtained using Dixon plots for Ki and Lineweaver-Burk plots for the inhibition mode.
Regarding B1, the Km was 25.5 µM.

Consider B2, for which the Km turned out to be 110 µM.

As for B3, the Km was 2.0 µM.

By Km is commonly meant the substrate concentration at which the rate is half of its maximum.
